Laboratory results taken from patent US7182945.
Where two headings read alike, the source gives them in different places.

T1: human leukocyte elastase (hLE) (human), P08246
T1 chain: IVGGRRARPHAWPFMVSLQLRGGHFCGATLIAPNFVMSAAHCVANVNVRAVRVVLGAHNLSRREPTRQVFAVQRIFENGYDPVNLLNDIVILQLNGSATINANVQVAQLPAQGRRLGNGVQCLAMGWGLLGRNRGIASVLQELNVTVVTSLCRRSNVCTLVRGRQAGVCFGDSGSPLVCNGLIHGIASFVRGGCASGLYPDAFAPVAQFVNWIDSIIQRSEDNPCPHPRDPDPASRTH

T2: human leukocyte cathepsin G (hCG) (human), P08311
T2 chain: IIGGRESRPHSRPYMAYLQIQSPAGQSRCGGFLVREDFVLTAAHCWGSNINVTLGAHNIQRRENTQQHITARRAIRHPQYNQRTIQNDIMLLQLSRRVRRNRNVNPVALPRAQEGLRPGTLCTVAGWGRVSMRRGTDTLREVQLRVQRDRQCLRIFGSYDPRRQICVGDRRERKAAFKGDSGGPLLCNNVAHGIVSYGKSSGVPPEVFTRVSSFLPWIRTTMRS


Columns and labels:
Settings in all cases: modification not given
[1] = molecular target: T1, human leukocyte elastase (hLE) (human), …
[2] = molecular target: T2, human leukocyte cathepsin G (hCG) …; assay: other enzyme inhibition
[3] = molecular target: T1, human leukocyte elastase (hLE) (human), …
[4] = molecular target: T1, human leukocyte elastase (hLE) (human), …
[5] = molecular target: T1, human leukocyte elastase (hLE) (human), …
[6] = molecular target: T1, human leukocyte elastase (hLE) (human), …
[7] = molecular target: T1, human leukocyte elastase (hLE) (human), …
[8] = molecular target: T1, human leukocyte elastase (hLE) (human), …
[9] = molecular target: T1, human leukocyte elastase (hLE) (human), …
[10] = molecular target: T1, human leukocyte elastase (hLE) (human), …
[11] = molecular target: T1, human leukocyte elastase (hLE) (human), …
[12] = molecular target: T1, human leukocyte elastase (hLE) (human), …
[13] = molecular target: T1, human leukocyte elastase (hLE) (human), …
[14] = molecular target: T1, human leukocyte elastase (hLE) (human), …
[15] = molecular target: T1, human leukocyte elastase (hLE) (human), …; assay: other enzyme inhibition

Binder | Ki [2] | other results
EILIFWSKDIGYSFT [CRP62-76 (peptide 6)] | 0.25 µM | Ki [1]: 0.18 µM
EILIFWSKAIGYSFT [peptide 22] | 5.5 µM | Ki [3]: 3 µM
KRQDNEILIFWSKDI [CRP57-71 (peptide 5)] | 180 µM | Ki [4]: 85 µM
TFSYGIDKSWFILIE [peptide 24] | – | Ki [5]: 10 µM
EILIFWSADI [peptide 25] | – | Ki [6]: 3 µM
ILIFWSKDIGYSFT [CRP63-76 (peptide 11)] | 15 µM | Ki [7]: 4.5 µM
EILIFWSKDIGY [CRP62-73 (peptide 13)] | 4 µM | Ki [8]: 1.1 µM
EILIFWSKEIGYSFT [peptide 23] | 0.85 µM | Ki [9]: 0.55 µM
EILIFWPKDIGYSFT [peptide 19] | 30 µM | –
ILFEVPEVTVAPVHI [CRP82-96 (peptide 10)] | 150 µM | Ki [10]: 55 µM
EILIFWSKDI [CRP62-71 (peptide 14)] | 6 µM | Ki [11]: 6.7 µM
GYSFTVGGSEILFEV [CRP72-86 (peptide 8)] | > 200 µM | –
ATKRQDNEILIFWSKDIGYSFTVGGSEIL [CRP55-83 (peptide 17)] | 5.5 µM | Ki [12]: 7.3 µM
EILIFWSVDI [peptide 26] | – | Ki [13]: 2 µM
DILIFWSKDIGYSFT [peptide 18] | 2.6 µM | Ki [14]: 2.2 µM
WSKDIGYSFTVGGSE [CRP67-81 (peptide 7)] | > 200 µM | –
LHFYTELSSTRGYSI [CRP37-51 (peptide 1)] | – | Ki [15]: > 200 µM
VGGSEILFEVPEVTV [CRP77-91 (peptide 9)] | > 200 µM | –
FSYATKRQDNEILIF [CRP52-66 (peptide 4)] | > 200 µM | –
